# Reference: patent publication US20180155451A1 (published 2018)
# T1: FcγRIIa R (extracellular domain with a His tag at the C terminus) (human, UniProt P12318 34-217)
# T1 construct: extracellular domain; expressed in FreeStyle293 cells; also called FcgRIIa R; FcγRIIa type R; not shown: His tag at the C terminus
# T1 sequence (looked up): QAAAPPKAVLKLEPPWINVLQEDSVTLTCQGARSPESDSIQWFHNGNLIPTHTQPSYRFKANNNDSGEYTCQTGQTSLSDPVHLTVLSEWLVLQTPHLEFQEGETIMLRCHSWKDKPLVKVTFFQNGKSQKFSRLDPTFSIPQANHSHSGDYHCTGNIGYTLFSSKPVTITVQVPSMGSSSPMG
# B1: GpH7-B3 variant K334_05P/GpL16-k0 (antibody, human IgG1, kappa)
# heavy: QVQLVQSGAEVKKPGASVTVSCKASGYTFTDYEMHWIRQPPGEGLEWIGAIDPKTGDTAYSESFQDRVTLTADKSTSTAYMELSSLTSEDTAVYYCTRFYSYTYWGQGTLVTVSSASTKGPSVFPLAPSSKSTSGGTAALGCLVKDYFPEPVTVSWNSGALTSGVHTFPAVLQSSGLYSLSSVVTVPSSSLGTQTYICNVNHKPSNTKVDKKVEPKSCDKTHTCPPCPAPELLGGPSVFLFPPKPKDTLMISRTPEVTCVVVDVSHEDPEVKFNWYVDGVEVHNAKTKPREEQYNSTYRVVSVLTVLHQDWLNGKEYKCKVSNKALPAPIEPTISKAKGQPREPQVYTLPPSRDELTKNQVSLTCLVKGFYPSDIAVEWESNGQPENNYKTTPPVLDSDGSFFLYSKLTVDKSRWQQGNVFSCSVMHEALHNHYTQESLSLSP
# light: DIVMTQSPLSLPVTPGEPASISCQASESLVHSNRNTYLHWYLQKPGQSPQLLIYKVSNRFSGVPDRFSGSGSGTDFTLKISRVEAEDVGVYYCSQNTHVPPTFGQGTKVEIERTVAAPSVFIFPPSDEQLKSGTASVVCLLNNFYPREAKVQWKVDNALQSGNSQESVTEQDSKDSTYSLSSTLTLSKADYEKHKVYACEVTHQGLSSPVTKSFNRGEC
# notes: homodimerized; mutation in both H chains; also called Ho Ab
# B2: GpH7-A5/GpH7-B3 variant S337_02A/GpL16-k0 (antibody, human IgG1, kappa)
# heavy 1: not shown
# heavy 2: not shown
# light: B1 light
# notes: heterodimerized; mutation in one H chain; also called He Ab
# B3: GpH7-B3 variant S239_08L/GpL16-k0 (antibody, human IgG1, kappa)
# heavy: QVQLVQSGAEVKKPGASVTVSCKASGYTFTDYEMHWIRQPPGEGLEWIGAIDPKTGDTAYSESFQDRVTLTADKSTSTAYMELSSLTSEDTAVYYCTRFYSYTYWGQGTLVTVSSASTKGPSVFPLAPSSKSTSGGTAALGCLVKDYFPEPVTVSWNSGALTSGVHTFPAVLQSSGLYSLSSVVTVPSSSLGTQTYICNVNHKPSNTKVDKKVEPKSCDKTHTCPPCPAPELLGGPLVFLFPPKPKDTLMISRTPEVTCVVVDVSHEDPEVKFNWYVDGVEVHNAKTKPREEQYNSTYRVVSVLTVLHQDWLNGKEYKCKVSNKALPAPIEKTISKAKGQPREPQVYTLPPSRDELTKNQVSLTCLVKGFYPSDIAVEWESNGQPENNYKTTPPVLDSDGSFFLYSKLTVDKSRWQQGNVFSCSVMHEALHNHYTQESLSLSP
# light: B1 light
# notes: as for B1
# B4: GpH7-B3 variant P238_03V/GpL16-k0 (antibody, human IgG1, kappa)
# heavy: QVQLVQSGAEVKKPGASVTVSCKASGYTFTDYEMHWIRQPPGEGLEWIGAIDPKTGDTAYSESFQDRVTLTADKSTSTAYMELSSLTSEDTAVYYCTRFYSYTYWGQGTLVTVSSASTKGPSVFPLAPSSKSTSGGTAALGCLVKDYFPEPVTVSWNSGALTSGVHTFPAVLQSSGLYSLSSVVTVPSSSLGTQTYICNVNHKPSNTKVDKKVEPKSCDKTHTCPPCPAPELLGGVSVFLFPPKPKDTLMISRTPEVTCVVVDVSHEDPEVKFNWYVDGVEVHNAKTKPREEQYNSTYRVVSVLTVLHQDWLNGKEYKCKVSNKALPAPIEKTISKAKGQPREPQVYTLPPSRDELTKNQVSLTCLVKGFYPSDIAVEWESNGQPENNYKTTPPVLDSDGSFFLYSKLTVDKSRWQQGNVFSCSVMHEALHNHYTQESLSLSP
# light: B1 light
# notes: as for B1
# B5: GpH7-A5/GpH7-B3 variant K326_04F/GpL16-k0 (antibody, human IgG1, kappa)
# heavy 1: not shown
# heavy 2: not shown
# light: B1 light
# notes: as for B2
# B6: GpH7-A5/GpH7-B3 variant K334_02A/GpL16-k0 (antibody, human IgG1, kappa)
# heavy 1: not shown
# heavy 2: not shown
# light: B1 light
# notes: as for B2
# B7: GpH7-B3 variant S239_18N/GpL16-k0 (antibody, human IgG1, kappa)
# heavy: not shown
# light: B1 light
# notes: as for B1
# B8: GpH7-B3 variant S267_06M/GpL16-k0 (antibody, human IgG1, kappa)
# heavy: not shown
# light: B1 light
# notes: as for B1
# B9: GpH7-A5/GpH7-B3 variant A327_09D/GpL16-k0 (antibody, human IgG1, kappa)
# heavy 1: not shown
# heavy 2: not shown
# light: B1 light
# notes: as for B2
# B10: GpH7-A5/GpH7-B3 variant K326_15Y/GpL16-k0 (antibody, human IgG1, kappa)
# heavy 1: not shown
# heavy 2: not shown
# light: B1 light
# notes: as for B2
# B11: GpH7-B3 variant T335_07I/GpL16-k0 (antibody, human IgG1, kappa)
# heavy: not shown
# light: B1 light
# notes: as for B1
# B12: GpH7-B3 variant S337_16H/GpL16-k0 (antibody, human IgG1, kappa)
# heavy: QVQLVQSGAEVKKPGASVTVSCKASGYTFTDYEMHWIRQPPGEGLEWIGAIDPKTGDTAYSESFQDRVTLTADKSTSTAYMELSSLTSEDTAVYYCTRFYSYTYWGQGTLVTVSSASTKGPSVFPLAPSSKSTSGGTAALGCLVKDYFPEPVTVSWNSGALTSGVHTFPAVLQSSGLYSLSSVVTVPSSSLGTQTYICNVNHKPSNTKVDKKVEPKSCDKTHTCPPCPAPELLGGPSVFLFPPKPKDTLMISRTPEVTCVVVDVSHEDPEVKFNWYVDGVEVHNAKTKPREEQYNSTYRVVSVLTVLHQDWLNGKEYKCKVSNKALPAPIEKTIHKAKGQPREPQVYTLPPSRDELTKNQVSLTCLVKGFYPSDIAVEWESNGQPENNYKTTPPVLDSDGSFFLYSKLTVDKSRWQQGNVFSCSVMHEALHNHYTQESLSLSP
# light: B1 light
# notes: as for B1
# B13: GpH7-A5/GpH7-B3 variant G237_20W/GpL16-k0 (antibody, human IgG1, kappa)
# heavy 1: not shown
# heavy 2: not shown
# light: B1 light
# notes: as for B2
# B14: GpH7-B3 variant S337_10E/GpL16-k0 (antibody, human IgG1, kappa)
# heavy: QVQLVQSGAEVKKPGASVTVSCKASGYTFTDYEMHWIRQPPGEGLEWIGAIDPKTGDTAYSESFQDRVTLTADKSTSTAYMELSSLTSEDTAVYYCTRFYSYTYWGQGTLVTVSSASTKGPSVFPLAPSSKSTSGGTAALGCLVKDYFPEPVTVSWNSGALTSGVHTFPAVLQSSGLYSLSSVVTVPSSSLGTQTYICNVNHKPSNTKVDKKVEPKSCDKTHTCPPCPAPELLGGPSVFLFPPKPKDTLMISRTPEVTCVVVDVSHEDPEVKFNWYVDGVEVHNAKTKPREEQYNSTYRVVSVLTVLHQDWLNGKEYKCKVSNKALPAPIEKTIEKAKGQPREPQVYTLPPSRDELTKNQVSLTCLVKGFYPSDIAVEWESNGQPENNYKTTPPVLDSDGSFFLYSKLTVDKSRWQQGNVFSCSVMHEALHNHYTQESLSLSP
# light: B1 light
# notes: as for B1
# B15: GpH7-A5/GpH7-B3 variant K334_05P/GpL16-k0 (antibody, human IgG1, kappa)
# heavy 1: not shown
# heavy 2: not shown
# light: B1 light
# notes: as for B2
# B16: GpH7-A5/GpH7-B3 variant K326_20W/GpL16-k0 (antibody, human IgG1, kappa)
# heavy 1: not shown
# heavy 2: not shown
# light: B1 light
# notes: as for B2
# B17: GpH7-A5/GpH7-B3 variant I332_06M/GpL16-k0 (antibody, human IgG1, kappa)
# heavy 1: not shown
# heavy 2: not shown
# light: B1 light
# notes: as for B2
# B18: GpH7-B3 variant S337_20W/GpL16-k0 (antibody, human IgG1, kappa)
# heavy: not shown
# light: B1 light
# notes: as for B1
# B19: GpH7-B3 variant S337_09D/GpL16-k0 (antibody, human IgG1, kappa)
# heavy: not shown
# light: B1 light
# notes: as for B1
# B20: GpH7-B3 variant P331_15Y/GpL16-k0 (antibody, human IgG1, kappa)
# heavy: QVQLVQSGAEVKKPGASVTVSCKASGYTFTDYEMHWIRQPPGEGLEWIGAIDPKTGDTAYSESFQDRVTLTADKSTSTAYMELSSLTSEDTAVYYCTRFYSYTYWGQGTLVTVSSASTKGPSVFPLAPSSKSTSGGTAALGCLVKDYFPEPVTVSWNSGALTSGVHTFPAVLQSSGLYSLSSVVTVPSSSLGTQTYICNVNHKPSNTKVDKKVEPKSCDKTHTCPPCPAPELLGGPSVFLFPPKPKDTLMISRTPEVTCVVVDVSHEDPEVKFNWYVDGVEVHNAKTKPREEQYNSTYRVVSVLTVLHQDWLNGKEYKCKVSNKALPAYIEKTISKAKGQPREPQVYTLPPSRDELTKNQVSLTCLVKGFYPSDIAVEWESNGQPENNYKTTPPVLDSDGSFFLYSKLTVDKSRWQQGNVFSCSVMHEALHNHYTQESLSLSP
# light: B1 light
# notes: as for B1
# B21: GpH7-B3 variant S267_03V/GpL16-k0 (antibody, human IgG1, kappa)
# heavy: not shown
# light: B1 light
# notes: as for B1
# B22: GpH7-B3 variant K334_19Q/GpL16-k0 (antibody, human IgG1, kappa)
# heavy: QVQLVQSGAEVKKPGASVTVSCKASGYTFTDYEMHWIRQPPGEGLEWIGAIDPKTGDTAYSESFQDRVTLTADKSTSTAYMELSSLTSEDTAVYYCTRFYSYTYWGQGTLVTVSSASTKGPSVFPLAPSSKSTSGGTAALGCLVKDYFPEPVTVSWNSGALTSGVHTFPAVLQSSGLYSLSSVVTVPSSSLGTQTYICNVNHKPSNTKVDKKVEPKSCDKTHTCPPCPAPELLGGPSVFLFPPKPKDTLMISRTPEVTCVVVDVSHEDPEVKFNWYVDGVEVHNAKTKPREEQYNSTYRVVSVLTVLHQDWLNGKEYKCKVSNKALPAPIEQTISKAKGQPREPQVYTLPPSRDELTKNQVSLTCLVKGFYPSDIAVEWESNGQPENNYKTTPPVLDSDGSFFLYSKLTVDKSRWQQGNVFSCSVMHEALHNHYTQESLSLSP
# light: B1 light
# notes: as for B1
# B23: GpH7-B3 variant S337_03V/GpL16-k0 (antibody, human IgG1, kappa)
# heavy: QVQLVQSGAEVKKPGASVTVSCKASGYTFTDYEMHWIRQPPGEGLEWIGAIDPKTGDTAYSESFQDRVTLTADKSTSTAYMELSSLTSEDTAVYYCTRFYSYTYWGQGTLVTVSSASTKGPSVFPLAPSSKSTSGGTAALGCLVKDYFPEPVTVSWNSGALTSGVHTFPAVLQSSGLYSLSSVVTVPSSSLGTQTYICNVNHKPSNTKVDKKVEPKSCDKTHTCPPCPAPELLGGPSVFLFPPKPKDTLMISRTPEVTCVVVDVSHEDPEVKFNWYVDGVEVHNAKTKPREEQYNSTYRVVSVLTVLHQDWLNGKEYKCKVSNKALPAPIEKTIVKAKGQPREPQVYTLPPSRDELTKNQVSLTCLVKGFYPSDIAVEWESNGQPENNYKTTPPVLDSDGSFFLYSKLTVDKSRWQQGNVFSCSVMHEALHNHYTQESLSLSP
# light: B1 light
# notes: as for B1
# B24: GpH7-A5/GpH7-B3 variant A327_10E/GpL16-k0 (antibody, human IgG1, kappa)
# heavy 1: not shown
# heavy 2: not shown
# light: B1 light
# notes: as for B2
# B25: GpH7-B3 variant K334_13S/GpL16-k0 (antibody, human IgG1, kappa)
# heavy: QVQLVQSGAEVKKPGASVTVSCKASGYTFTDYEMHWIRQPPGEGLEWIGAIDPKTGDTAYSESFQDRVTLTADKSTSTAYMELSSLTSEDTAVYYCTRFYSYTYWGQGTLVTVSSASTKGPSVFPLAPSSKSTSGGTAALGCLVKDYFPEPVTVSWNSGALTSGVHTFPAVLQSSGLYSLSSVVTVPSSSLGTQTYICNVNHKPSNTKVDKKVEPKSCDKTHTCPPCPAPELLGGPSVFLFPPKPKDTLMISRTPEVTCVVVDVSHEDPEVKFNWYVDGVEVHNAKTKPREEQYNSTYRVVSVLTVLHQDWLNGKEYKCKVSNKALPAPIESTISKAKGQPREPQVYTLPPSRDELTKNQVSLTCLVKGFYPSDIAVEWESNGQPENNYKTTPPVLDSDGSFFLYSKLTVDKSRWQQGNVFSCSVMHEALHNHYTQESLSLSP
# light: B1 light
# notes: as for B1
# B26: GpH7-B3 variant P271_08L/GpL16-k0 (antibody, human IgG1, kappa)
# heavy: not shown
# light: B1 light
# notes: as for B1
# B27: GpH7-B3 variant T335_13S/GpL16-k0 (antibody, human IgG1, kappa)
# heavy: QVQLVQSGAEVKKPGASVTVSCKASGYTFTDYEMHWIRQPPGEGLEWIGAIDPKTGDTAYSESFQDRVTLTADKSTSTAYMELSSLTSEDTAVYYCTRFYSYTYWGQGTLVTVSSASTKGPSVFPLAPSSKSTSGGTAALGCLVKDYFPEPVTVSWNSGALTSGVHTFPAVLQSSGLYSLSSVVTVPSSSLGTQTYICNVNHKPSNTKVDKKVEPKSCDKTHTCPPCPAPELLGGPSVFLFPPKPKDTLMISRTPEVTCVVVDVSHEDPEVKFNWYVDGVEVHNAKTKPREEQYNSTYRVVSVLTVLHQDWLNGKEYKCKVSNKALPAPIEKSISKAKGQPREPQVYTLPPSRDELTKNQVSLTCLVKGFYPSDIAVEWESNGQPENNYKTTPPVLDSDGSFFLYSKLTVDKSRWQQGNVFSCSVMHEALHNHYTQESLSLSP
# light: B1 light
# notes: as for B1
# B28: GpH7-B3 variant S337_18N/GpL16-k0 (antibody, human IgG1, kappa)
# heavy: not shown
# light: B1 light
# notes: as for B1
# B29: GpH7-B3 variant L328_14T/GpL16-k0 (antibody, human IgG1, kappa)
# heavy: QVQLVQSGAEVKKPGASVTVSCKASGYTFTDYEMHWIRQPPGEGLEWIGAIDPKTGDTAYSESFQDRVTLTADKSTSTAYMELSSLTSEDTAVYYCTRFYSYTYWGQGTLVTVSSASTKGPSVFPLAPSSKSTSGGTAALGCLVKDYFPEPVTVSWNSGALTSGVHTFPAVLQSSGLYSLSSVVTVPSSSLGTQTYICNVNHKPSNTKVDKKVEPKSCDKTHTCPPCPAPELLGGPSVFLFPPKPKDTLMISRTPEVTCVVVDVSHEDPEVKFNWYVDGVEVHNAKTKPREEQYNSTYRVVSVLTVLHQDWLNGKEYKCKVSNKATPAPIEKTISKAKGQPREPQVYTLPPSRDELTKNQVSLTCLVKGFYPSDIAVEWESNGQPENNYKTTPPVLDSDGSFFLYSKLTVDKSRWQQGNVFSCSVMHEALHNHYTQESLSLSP
# light: B1 light
# notes: as for B1
# Target: T1, FcγRIIa R (extracellular domain with a …)
# Assay: SPR Biacore, relative binding
Ho/Con_2aR,He/Con_2aR,Binder
102 % of GpH7-B3/GpL16-k0 (=100),–,B1
–,105 % of GpH7-A5/GpH7-B3/GpL16-k0 (=100),B2
106 % of GpH7-B3/GpL16-k0 (=100),–,B3
116 % of GpH7-B3/GpL16-k0 (=100),–,B4
–,135 % of GpH7-A5/GpH7-B3/GpL16-k0 (=100),B5
–,105 % of GpH7-A5/GpH7-B3/GpL16-k0 (=100),B6
103 % of GpH7-B3/GpL16-k0 (=100),–,B7
102 % of GpH7-B3/GpL16-k0 (=100),–,B8
–,124 % of GpH7-A5/GpH7-B3/GpL16-k0 (=100),B9
–,136 % of GpH7-A5/GpH7-B3/GpL16-k0 (=100),B10
107 % of GpH7-B3/GpL16-k0 (=100),–,B11
107 % of GpH7-B3/GpL16-k0 (=100),–,B12
–,138 % of GpH7-A5/GpH7-B3/GpL16-k0 (=100),B13
110 % of GpH7-B3/GpL16-k0 (=100),–,B14
–,103 % of GpH7-A5/GpH7-B3/GpL16-k0 (=100),B15
–,131 % of GpH7-A5/GpH7-B3/GpL16-k0 (=100),B16
–,109 % of GpH7-A5/GpH7-B3/GpL16-k0 (=100),B17
105 % of GpH7-B3/GpL16-k0 (=100),–,B18
114 % of GpH7-B3/GpL16-k0 (=100),–,B19
105 % of GpH7-B3/GpL16-k0 (=100),–,B20
115 % of GpH7-B3/GpL16-k0 (=100),–,B21
108 % of GpH7-B3/GpL16-k0 (=100),–,B22
102 % of GpH7-B3/GpL16-k0 (=100),–,B23
–,110 % of GpH7-A5/GpH7-B3/GpL16-k0 (=100),B24
106 % of GpH7-B3/GpL16-k0 (=100),–,B25
102 % of GpH7-B3/GpL16-k0 (=100),–,B26
102 % of GpH7-B3/GpL16-k0 (=100),–,B27
103 % of GpH7-B3/GpL16-k0 (=100),–,B28
118 % of GpH7-B3/GpL16-k0 (=100),–,B29
